The values below come from IntAct's records for PubMed 22056770.

B1: Flagellum site-determining protein YlxH (Bacillus subtilis), P40742 (parent)
chain: MQMNRYDQAATLRAKMEKRERVLPMVYSQKAKTLAVISGKGGVGKSNITLNMALALQDKGKKVLLIDLDIGMGNIDILIGNSSSATIIDVLTDRKPLLQSLSVGPKGLRYISGGTGLDVMFQLDQRKWTFFANELSHALSQFDYVLFDMGAGLSKDQLPFILSAEDILIITTPEPTAIMDAYSAVKHLVLTENKLSMKVAVNRCRDQKEGLDAFARLSRTIHMFLDVQVQFAGSVSDDVIVSKAVVEQVPFFIKSPQAKASRSVRILADALFEREETRHKEDKQTFIEKLSSFLMRRA
partner: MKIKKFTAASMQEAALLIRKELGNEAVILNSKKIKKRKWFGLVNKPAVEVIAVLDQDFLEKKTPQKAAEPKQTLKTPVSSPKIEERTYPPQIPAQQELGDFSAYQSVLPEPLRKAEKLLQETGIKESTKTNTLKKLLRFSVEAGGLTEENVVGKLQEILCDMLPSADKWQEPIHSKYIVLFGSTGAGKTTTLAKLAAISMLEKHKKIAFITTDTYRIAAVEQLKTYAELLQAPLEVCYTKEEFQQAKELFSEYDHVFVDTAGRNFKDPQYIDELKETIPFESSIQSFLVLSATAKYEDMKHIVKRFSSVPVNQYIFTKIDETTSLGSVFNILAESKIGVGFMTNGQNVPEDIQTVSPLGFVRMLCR
B2: Flagellar biosynthesis protein FlhF (Bacillus subtilis), Q01960 (parent)
chain: B1 partner
partner: B1 chain

The variants in the first experiment derive from B1. The conditions noted are these: with flhf_bacsu flhF.
For Q8A, the “effect of a mutation on the interaction” value is “disrupting interaction”.

The variants in a further experiment derive from B2. The conditions noted are these: with ylxh_bacsu ylxH.
In the case of R216A, the “effect of a mutation on the interaction” value was “disrupting interaction”.
